# In paper PMC4661009, “Synthesis of α,β-unsaturated esters via a chemo-enzymatic chain elongation approach by combining carboxylic acid reduction and Wittig reaction” (Beilstein Journal of Organic Chemistry, 2015):
# B1: Mycobacterium CAR (Mycolicibacterium neoaurum VKM Ac-1815D) (protein)
# chain: MFAENLDDQQRLADLYATDPEFAAAAPDPAIADAVAAPEMRLPEIIRTVLTGYAERPALGSRAVQLVTDEATGRTRAELLGHFETITYGQLWDRVRAVTNAWSDTVRPGDRVAILGFGSVDFTVIDIALTQLGAVSVPLQTSATAAALAPIVAETEPALIASDVNHLDDAVTLALESGVATVVVFDQNPAVDDDREAIAAATARLDGQTLATLDEVIAAGAERPDVAIPAQEGDPLSLLIYTSGSTGAPKGAMYPQGKVADIWRPAINSHWDARQGHVPAIVLSFMPMSHVMGRGILYASLASGGVVNFAARADLSTLLEDLALTRPTQLNFVPRVWDMLFQDYQSRAAHGGSEADILADMRTNLLGGRYVSALTGSAPISPELKAWVERLLDLHLVEGYGSTEAGAVFVDGQISRPPVLEYKLVDVPELGYHSTDVPHPRGELLIRSEQLFPGYYKRPEVTASVFDEDGFYRTGDIVAELGPDQVAYIDRRNNVLKLSQGEFVTVSKLEAVFNTAPLVHQIYIYGNSARPYLLAVVVPTDPAATKAEIADALKAAARKADLQSYELPRDFLVETQEFTTENGLLTGIKKLAWPKLKERYGAELEQLYTDLADGQAGELQALRATGADAPVLETVGRAAVALLGAASSDIAPDVHFTDLGGDSLSALTFGNLLADIFDVEVPVSVIVSPTADLASIAAHIETQRSGSGLRPSFASVHGKDATVARAADLTLDKFIDAETLAAAGDLAGPATNVRTVLLTGATGFLGRYLALEWLERMNLVDGKVIALVRARSDAEARARLDATFDTGDPKLVAHYRELADKHLEVLAGDKGEHDLGLDRQTWQRLADTVDLIVDPAALVNHVLPYNELFGPNALGTAELIRVALTTRIKPFVYVSTIGVGAGIEPGRFVEDADIREISATRVLDDSYANGYGASKWAGEVLLREAHEQFGLPVSVFRCDMILADTSYAGQLNLPDMFTRMMLSLVATGIAPKSFNQLDAQGNRQRSHYDGLPVEFIAEAISTLGADVTDGFETYHVMNPHDDGLGLDEFVDWLVDAGHPIRRIDDYQAWFEQFGATLRTLPDRQRQASLLPLLHNYTTPGQPVNGAMAPTDVFRTAVQEAKIGPDKDIPHVSRDVIVKYVTDLQLLGLL
# notes: full-length gene in pET30b(+) (NdeI/XhoI), His-tagged, E. coli BL21(DE3), tag kept; monomer, theoretical 125 kDa; holo form made with Nocardia PPTase (ABI83656.1) and CoA
# Substrate: O=C(O)c1ccccc1
# Test: steady-state kinetics of carboxylic acid reduction
# Type: biochemical, Mycolicibacterium neoaurum
# Conditions: His-tagged CAR, holo form after PPTase/CoA treatment; ATP, NADPH, Mg2+ as cofactors; assay pH and temperature for Km not in main text
protein,measurement,value
B1,Km,1750 ± 160 µM
